The supplement of paper PMC5998384

Key:
HeLa Kyoto [1] = assay: solubility change mitosis vs G1/S (difference of NP-40 vs SDS log2 ratios) (log2 ratio difference); higher = more soluble in mitosis
HeLa Kyoto [2] = assay: melting temperature (median over replicates), in situ; higher = more thermally stable
HeLa Kyoto [3] = assay: thermal stability score vs G1/S (z-score of summed log2 fold changes over temperatures); higher = more thermally stable than in G1/S
HeLa Kyoto [4] = assay: solubility in G1/S (NP-40 vs SDS abundance) (log2 ratio); higher = more soluble; settings: cell cycle stage: G1/S
[5] = cell cycle stage: early G1 (4.5 h after nocodazole release)
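Wherever melting temperature (median over replicates), in situ is given: HeLa Kyoto cells synchronized by double thymidine or nocodazole block, proteins quantified by TMT10plex mass spectrometry, three independent biological replicates.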
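Wherever solubility change mitosis vs G1/S (difference of NP-40 vs SDS log2 ratios) is given: synchronized HeLa Kyoto cells (double thymidine block for G1/S, nocodazole release for mitosis), protein amounts in NP-40 versus SDS lysates quantified by mass spectrometry, three biological replicates.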
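Wherever solubility in G1/S (NP-40 vs SDS abundance) is given: HeLa Kyoto cells arrested at G1/S by double thymidine block, proteins quantified by TMT10plex mass spectrometry in mild NP-40 versus SDS extracts, three biological replicates.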
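Wherever thermal stability score vs G1/S (z-score of summed log2 fold changes over temperatures) is given: synchronized HeLa Kyoto cells, proteins quantified by TMT10plex mass spectrometry, three biological replicates, mitosis taken 0.5 h after nocodazole release, G1/S directly after double thymidine block.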

Sequence | solubility change mitosis (log2) (HeLa Kyoto [1]) | melting temperature (HeLa Kyoto [2]; cell cycle stage: G1/S) [°C] | melting temperature (HeLa Kyoto [2]; cell cycle stage: mitosis) [°C] | thermal stability score (HeLa Kyoto [3]; [5]) | thermal stability score (HeLa Kyoto [3]; cell cycle stage: mitosis) | solubility in G1/S (log2) (HeLa Kyoto [4])
MAVVIRLLGLPFIAGPVDIRHFFTGLTIPDGGVHIIGGEIGEAFIIFATDEDARRAISRSGGFIKDSSVELFLSSKAEMQKTIEMKRTDRVGRGRPGSGTSGVDSLSNFIESVKEEASNSGYGSSINQDAGFHTNGTGHGNLRPRKTRPLKAENPYLFLRGLPYLVNEDDVRVFFSGLCVDGVIFLKHHDGRNNGDAIVKFASCVDASGGLKCHRSFMGSRFIEVMQGSEQQWIEFGGNAVKEGDVLRRSEEHSPPRGINDRHFRKRSHSKSPRRTRSRSPLGFYVHLKNLSLSIDERDLRNFFRGTDLTDEQIRFLYKDENRTRYAFVMFKTLKDYNTALSLHKTVLQYRPVHIDPISRKQMLKFIARYEKKRSGSLERDRPGHVSQKYSQEGNSGQKLCIYIRNFPFDVTKVEVQKFFADFLLAEDDIYLLYDDKGVGLGEALVKFKSEEQAMKAERLNRRRFLGTEVLLRLISEAQIQEFGVNFSVMSSEKMQARSQSRERGDHSHLFDSKDPPIYSVGAFENFRHQLEDLRQLDNFKHPQRDFRQPDRHPPEDFRHSSEDFRFPPEDFRHSPEDFRRPREEDFRRPSEEDFRRPWEEDFRRPPEDDFRHPREEDWRRPLEEDWRRPLEEDFRRSPTEDFRQLPEEDFRQPPEEDLRWLPEEDFRRPPEEDWRRPPEEDFRRPLQGEWRRPPEDDFRRPPEEDFRHSPEEDFRQSPQEHFRRPPQEHFRRPPPEHFRRPPPEHFRRPPPEHFRRPPPEHFRRPPPEHFRRPPPEHFRRPPQEHFRRPPQEHFRRSREEDFRHPPDEDFRGPPDEDFRHPPDEDFRSPQEEDFRCPSDEDFRQLPEEDLREAPEEDPRLPDNFRPPGEDFRSPPDDFRSHRPFVNFGRPEGGKFDFGKHNMGSFPEGRFMPDPKINCGSGRVTPIKIMNLPFKANVNEILDFFHGYRIIPDSVSIQYNEQGLPTGEAIVAMINYNEAMAAIKDLNDRPVGPRKVKLTLL [RBM12B] | 0.191 | 47.6 | 49.7 | 0.194 | 1.05 | -0.972
MAWALKLPLADEVIESGLVQDFDASLSGIGQELGAGAYSMSDVLALPIFKQEESSLPPDNENKILPFQYVLCAATSPAVKLHDETLTYLNQGQSYEIRMLDNRKLGELPEINGKLVKSIFRVVFHDRRLQYTEHQQLEGWRWNRPGDRILDIDIPMSVGIIDPRANPTQLNTVEFLWDPAKRTSVFIQVHCISTEFTMRKHGGEKGVPFRVQIDTFKENENGEYTEHLHSASCQIKVFKPKGADRKQKTDREKMEKRTPHEKEKYQPSYETTILTECSPWPEITYVNNSPSPGFNSSHSSFSLGEGNGSPNHQPEPPPPVTDNLLPTTTPQEAQQWLHRNRFSTFTRLFTNFSGADLLKLTRDDVIQICGPADGIRLFNALKGRMVRPRLTIYVCQESLQLREQQQQQQQQQQKHEDGDSNGTFFVYHAIYLEELTAVELTEKIAQLFSISPCQISQIYKQGPTGIHVLISDEMIQNFQEEACFILDTMKAETNDSYHIILK [TFCP2] | -0.0306 | 48.2 | 48.6 | 0.94 | 2.72 | -0.0776
MAWTKYQLFLAGLMLVTGSINTLSAKWADNFMAEGCGGSKEHSFQHPFLQAVGMFLGEFSCLAAFYLLRCRAAGQSDSSVDPQQPFNPLLFLPPALCDMTGTSLMYVALNMTSASSFQMLRGAVIIFTGLFSVAFLGRRLVLSQWLGILATIAGLVVVGLADLLSKHDSQHKLSEVITGDLLIIMAQIIVAIQMVLEEKFVYKHNVHPLRAVGTEGLFGFVILSLLLVPMYYIPAGSFSGNPRGTLEDALDAFCQVGQQPLIAVALLGNISSIAFFNFAGISVTKELSATTRMVLDSLRTVVIWALSLALGWEAFHALQILGFLILLIGTALYNGLHRPLLGRLSRGRPLAEESEQERLLGGTRTPINDAS [SLC35F6] | -0.0109 | 60.1 | 56 | -2.27 | -5.04 | -0.144
MAWVLKMDEVIESGLVHDFDASLSGIGQELGAGAYSMSDVLALPIFKQEDSSLPLDGETEHPPFQYVMCAATSPAVKLHDETLTYLNQGQSYEIRMLDNRKMGDMPEINGKLVKSIIRVVFHDRRLQYTEHQQLEGWKWNRPGDRLLDLDIPMSVGIIDTRTNPSQLNAVEFLWDPAKRTSAFIQVHCISTEFTPRKHGGEKGVPFRIQVDTFKQNENGEYTDHLHSASCQIKVFKPKGADRKQKTDREKMEKRTAHEKEKYQPSYDTTILTEMRLEPIIEDAVEHEQKKSSKRTLPADYGDSLAKRGSCSPWPDAPTAYVNNSPSPAPTFTSPQQSTCSVPDSNSSSPNHQGDGASQTSGEQIQPSATIQETQQWLLKNRFSSYTRLFSNFSGADLLKLTKEDLVQICGAADGIRLYNSLKSRSVRPRLTIYVCREQPSSTVLQGQQQAASSASENGSGAPYVYHAIYLEEMIASEVARKLALVFNIPLHQINQVYRQGPTGIHILVSDQMVQNFQDESCFLFSTVKAESSDGIHIILK [UBP1] | 0.0235 | 50.5 | 48.3 | -0.25 | -0.0933 | 0.06
